Publication PMC4661071

Key:
[1] = molecular target: wild-type EPCR on stably transfected CHO745 cells (UniProt Q9UNN8); assay: flow cytometry on cells
[2] = molecular target: recombinant soluble EPCR (extracellular region, residues 18–210), biotinylated (UniProt Q9UNN8); assay: BLI
[3] = molecular target: EPCR R81A on stably transfected CHO745 cells (UniProt Q9UNN8); assay: flow cytometry on cells

Substance: Var06CIDRα1.1 recombinant protein (domain or fragment)
- MFI of Fl-APC on the cells with 250 µg/ml of the CIDR domain (1329 without) [1]: 429
- double positive cells (CIDR and Fl-APC) at 250 µg/ml of the CIDR domain [1]: 62%
- Kd [2]: 98 nM

Substance: Var07CIDRα1.4 recombinant protein (domain or fragment)
- decrease of binding relative to wild type EPCR [3]: 80%
- MFI of Fl-APC on the cells with 100 µg/ml of the CIDR domain (1329 without) [1]: 385
- double positive cells (CIDR and Fl-APC) at 100 µg/ml of the CIDR domain [1]: 28%

Substance: Var19CIDRα1.1 recombinant protein (from UniProt A3R6S3 1-3373) (domain or fragment)
- decrease of binding relative to wild type EPCR [3]: 90%
- MFI of Fl-APC on the cells with 250 µg/ml of the CIDR domain (1329 without) [1]: 746
- double positive cells (CIDR and Fl-APC) at 250 µg/ml of the CIDR domain [1]: 69%

Substance: activated protein C (APC), unlabeled (from UniProt P04070 43-197; P04070 43-197) (enzyme)
- mean fluorescence intensity (MFI) of APC labeling, without CIDR domains [1]: 994
- percent of CHO745-EPCR cells labeled for APC, without CIDR domains [1]: 76%

Substance: fluorescein-labelled activated protein C (Fl-APC) (from UniProt P04070 43-197; P04070 43-197) (enzyme)
- MFI of Fl-APC, without CIDR domains [1]: 1330
- percent of cells that bound 50 µg/ml Fl-APC, without CIDR domains [1]: 78%
